In experiment [1] the target is T1, biotinylated histone H3 peptide trimethylated at lysine 27, H3K27me3 (21-44) (UniProt P68431 22-45, trimethyl-lysine at K27; biotinylated). Nature of the experiment: peptide microspot array; apparent Kd; 10 uM H3K27me3; replicate 1.
The target in experiment [2] is T1, biotinylated histone H3 peptide …. Nature of the experiment: peptide microspot array; apparent Kd; 10 uM H3K27me3; replicate 2.
Experiment [3] shares this target. Nature of the experiment: peptide microspot array; apparent Kd; 10 uM H3K27me3; replicate 3.
Experiment [4] shares this target. Nature of the experiment: peptide microspot array; apparent Kd; 20 uM H3K27me3; replicate 2.
Experiment [5] shares this target. Nature of the experiment: peptide microspot array; apparent Kd; 20 uM H3K27me3; replicate 3.
The target is the same in experiment [6]. Nature of the experiment: peptide microspot array; apparent Kd; 50 uM H3K27me3; replicate 1.
The target is the same in experiment [7]. Nature of the experiment: peptide microspot array; apparent Kd; 50 uM H3K27me3; replicate 2.

B1: PcTF, monovalent Polycomb-based transcription factor (pET28 construct, purified from E. coli) (designed binder)
chain: MELSAVGERVFAAEALLKRRIRKGRMEYLVKWKGWSQKYSTWEPEENILDARLLAAFEERER
Turning to B1, the Kd turned out to be 1.54 µM in experiment [1]; 1.55 µM in experiment [2]; 7.6 µM in experiment [3]; 5.66 µM in experiment [4]; 6.45 µM in experiment [5]; 3.5 µM in experiment [6]. Moreover, in experiment [7], the Kd amounted to 7.73 µM.

For the origin of these results see US20190248848A1 (published 2019).
